How the values were obtained:
GSDMD^CT = molecular target: T1, GSDMD^CT (human, UniProt P57764); assay: LUMIER co-IP in HEK293T, HA-tagged VHH with Renilla luciferase fusion
T1 construct: domain fused to Renilla luciferase; LUMIER bait; also called GSDMD^CT-Renilla luciferase fusion
T1 sequence (single chain, looked up): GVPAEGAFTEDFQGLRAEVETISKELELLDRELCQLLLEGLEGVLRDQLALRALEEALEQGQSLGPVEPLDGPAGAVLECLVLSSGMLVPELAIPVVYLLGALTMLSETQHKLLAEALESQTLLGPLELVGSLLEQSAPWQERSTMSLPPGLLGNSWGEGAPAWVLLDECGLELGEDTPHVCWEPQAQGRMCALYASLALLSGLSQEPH

[1] = molecular target: T2, human gasdermin D (GSDMD), full length (human, UniProt P57764 1-484, chemically biotinylated (sites not given) in the SPR experiments); assay: nanoDSF thermal shift, equimolar GSDMD and nanobody
T2 construct: Used in SPR (biotinylated), nanoDSF and the liposome assay; the same entry is used for endogenous GSDMD of THP-1 cells; also called wild type, human GSDMD; GSDMD 1-484
T2 sequence: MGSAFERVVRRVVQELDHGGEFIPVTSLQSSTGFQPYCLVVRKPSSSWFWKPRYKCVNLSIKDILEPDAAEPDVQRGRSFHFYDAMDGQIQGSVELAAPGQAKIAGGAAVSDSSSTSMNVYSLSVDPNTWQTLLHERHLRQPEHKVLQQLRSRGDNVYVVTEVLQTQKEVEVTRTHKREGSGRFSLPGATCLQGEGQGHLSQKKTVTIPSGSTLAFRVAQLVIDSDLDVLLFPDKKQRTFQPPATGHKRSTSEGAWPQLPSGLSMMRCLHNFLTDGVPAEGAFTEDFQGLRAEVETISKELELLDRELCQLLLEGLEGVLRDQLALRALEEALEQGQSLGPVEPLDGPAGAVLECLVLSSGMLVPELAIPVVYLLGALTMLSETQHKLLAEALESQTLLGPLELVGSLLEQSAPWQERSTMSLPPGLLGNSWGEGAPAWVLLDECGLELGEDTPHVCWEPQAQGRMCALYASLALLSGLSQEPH

[2] = molecular target: T2, human gasdermin D (GSDMD), full length; assay: nanoDSF thermal shift, 5 µM GSDMD + 5 µM VHH; SD 0.8 °C; GSDMD alone 50.2 °C (SD 0.3)
Procedure: (§1) One representative out of three experiments is shown. d, Unfolding temperatures of GSDMD, the nanobodies and GSDMD-nanobody complexes were determined using nanoDSF. The unfolding temperatures of GSDMD at 5 μM and the GSDMD nanobody complexes after addition of 5 μM nanobody are shown. N=x, data represented with SD. e, Unfolding temperatures of GSDMD and GSDMD-nanobody complexes.
(§2) The thermal stability of the nanobodies and their impact on the thermostability of GSDMD was further analyzed using a thermal shift assay by nano-differential scanning fluorimetry (FIG. 11D, E and FIG. 18).

[3] = molecular target: T2, human gasdermin D (GSDMD), full length; assay: SPR (Biacore 8K), biotinylated GSDMD immobilized, nanobody as analyte, multi-cycle kinetics, 1:1 model
Procedure: (§3) Chemically biotinylated GSDMD was immobilized on a sensor chip and nanobodies were injected as analytes at the indicated concentrations for 120 s, followed by dissociation for 300 s. Dissociation constants (KDs) were determined from the association and dissociation fits by applying a 1:1 binding model. d, Epitope binning assay.
(§4) Surface plasmon resonance experiments were performed using a Biacore 8K instrument (GE Healthcare). The flow system was cleaned using the maintenance “Desorb” function (Desorb Kit, GE Healthcare). The system was flushed with running buffer (20 mM HEPES (pH 8.0), 200 mM NaCl, 5 mM DTT, 0.05% Tween20) and all steps were performed at 25° C. chip temperature. Chemically biotinylated GSDMD at a concentration of 100 nM was immobilized for 180 s on the flow cell 2 of a Series S Sensor Chip CAP using a biotin capture kit and a flow rate of 30 μl/min. The system was washed for 600 s with running buffer with a flow rate of 30 μl/min. Binding affinities were determined using multi-cycle kinetics. […] The association step was carried out for 120 s and the dissociation step for 300 s.

[4] = molecular target: T2, human gasdermin D (GSDMD), full length; assay: nanoDSF titration, 5 µM GSDMD + 5 µM VHH; SD 0.8; GSDMD 5 µM alone 50.2 °C, VHH-5 50 µM alone 58.5 °C
Procedure: (§5) The melting temperatures of GSDMD and the nanobodies alone were determined at concentrations of 5 and 50 μM, respectively.

murine GsdmD = molecular target: T3, murine GsdmD (murine, UniProt Q9D8T2 1-487); assay: LUMIER co-IP in HEK293T, HA-tagged VHH with Renilla luciferase fusion
T3 construct: not shown: Renilla luciferase
T3 sequence (looked up): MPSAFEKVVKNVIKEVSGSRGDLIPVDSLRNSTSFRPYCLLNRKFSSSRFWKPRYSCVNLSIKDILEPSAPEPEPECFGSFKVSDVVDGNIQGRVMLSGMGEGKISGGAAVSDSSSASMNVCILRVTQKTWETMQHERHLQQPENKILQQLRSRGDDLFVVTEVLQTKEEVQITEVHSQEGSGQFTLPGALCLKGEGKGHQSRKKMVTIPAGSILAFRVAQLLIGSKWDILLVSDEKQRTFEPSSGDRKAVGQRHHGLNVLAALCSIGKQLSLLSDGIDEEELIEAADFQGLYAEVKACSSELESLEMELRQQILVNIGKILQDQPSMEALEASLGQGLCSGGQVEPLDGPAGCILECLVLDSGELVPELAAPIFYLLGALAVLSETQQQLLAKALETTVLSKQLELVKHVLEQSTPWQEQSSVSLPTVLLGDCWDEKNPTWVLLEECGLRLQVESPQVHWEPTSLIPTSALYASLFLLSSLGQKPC

[5] = molecular target: T2, human gasdermin D (GSDMD), full length; assay: nanoDSF thermal shift, 5 µM GSDMD + 5 µM VHH; SD 1.0 °C; GSDMD alone 50.2 °C (SD 0.3)
Procedure: as §1, §2

[6] = molecular target: T2, human gasdermin D (GSDMD), full length; assay: nanoDSF titration, 5 µM GSDMD + 5 µM VHH; SD 1.0; GSDMD 5 µM alone 50.2 °C, VHH-2 50 µM alone 58.0 °C
Procedure: as §5

[7] = molecular target: T2, human gasdermin D (GSDMD), full length; assay: nanoDSF thermal shift, 5 µM GSDMD + 5 µM VHH; SD 0.5 °C; GSDMD alone 50.2 °C (SD 0.3)
Procedure: as §1, §2

[8] = molecular target: T2, human gasdermin D (GSDMD), full length; assay: SPR (Biacore 8K), chemically biotinylated GSDMD immobilised, VHH as analyte, multi-cycle kinetics, 1:1 fit
Procedure: as §3, §4

[9] = molecular target: T2, human gasdermin D (GSDMD), full length; assay: nanoDSF titration, 5 µM GSDMD + 5 µM VHH; SD 0.5; GSDMD 5 µM alone 50.2 °C, VHH-6 50 µM alone 42.6 and 53.5 °C
Procedure: as §5

[10] = molecular target: T2, human gasdermin D (GSDMD), full length; assay: nanoDSF titration, 5 µM GSDMD + 5 µM VHH; SD 1.0; GSDMD 5 µM alone 50.2 °C, VHH-1 50 µM alone 67.6 °C
Procedure: as §5

[11] = molecular target: T2, human gasdermin D (GSDMD), full length; assay: nanoDSF thermal shift, 5 µM GSDMD + 5 µM VHH; SD 1.3 °C; GSDMD alone 50.2 °C (SD 0.3)
Procedure: as §1, §2

[12] = molecular target: T2, human gasdermin D (GSDMD), full length; assay: nanoDSF titration, 5 µM GSDMD + 5 µM VHH; SD 1.3; GSDMD 5 µM alone 50.2 °C, VHH-3 50 µM alone 59.1 °C
Procedure: as §5

| Binder | binding result (GSDMD^CT) | Kd [3] [nM] | increase of the thermal stability of GSDMD [1] [°C] | binding result (murine GsdmD) | Tm of GSDMD with the VHH [5] [°C] | other results |
| --- | --- | --- | --- | --- | --- | --- |
| VHH-4 (VHH, Alpaca single-domain antibody; also called VHH AK-C10; GSDMD4; not shown: C-terminal HA-His tag (recombinant protein: SPR, nanoDSF, liposome assay, ELISA)) VHH: QVQLVESGGGLVQPGGSLRLSCAASGFTLDRHAIAWFRQAPGLEREGVVCTSSSGAITNTADSVKGRFTISRDDAKNTVYLQMNSLKPEDTAIYYCAVRELWTVQPICEPRPRAYAYWGQGTQVTVSS | no binding |  |  |  |  |  |
| VHHGSDMD-5 (VHH, Alpaca single-domain antibody; also called VHH AK-G04; VHH-5; not shown: C-terminal HA-His tag (recombinant protein: SPR, nanoDSF, liposome assay, ELISA) or HA tag (LUMIER)) VHH: QVQLVETGGGLVQPGGSLRLSCAASGFVFSINPMNWYRQAPGKERELVAYISMRGSTTNYADSVKGRFIISRDNAKNTLYLQMNSLKPEDTAVYYCNAPSRSVWGQGTQVTVSS | no binding | 4.14 |  |  |  | decrease of the melting temperature of GSDMD [1]: ≤ 2.5 °C; Tm of GSDMD with the VHH [2]: 48.8 °C; Tm of GSDMD with the VHH [4]: 48.8 °C |
| VHHGSDMD-2 (VHH, Alpaca single-domain antibody; The crystal model holds VHH-2 residues 1-118; One entry is used for all tag variants; also called VHH AK-C03; VHH-2; not shown: C-terminal tag that differs by assay: LPETG-His (recombinant protein: SPR, nanoDSF, liposome assay, crystal), HA-His6 (E)) VHH: QVQLVESGGGLVQPGGSLRLSCVDSRSWINVYGANWYRQAPGKERELVAALTSGGTTNYADSVKGRFTISRDNAKNTVYLQMRDLKPEDTAVYYCNLERYTGSSVYPWGQGTQVTVSS | no binding | 8.24 | ≤ 9.4 | no binding | 56 | Tm of GSDMD with the VHH [6]: 56 °C |
| VHHGSDMD-6 (VHH, Alpaca single-domain antibody; The crystal model holds VHH-6 residues 1-123; also called VHH AK-G08; VHH-6; not shown: C-terminal HA-His tag (recombinant protein: SPR, nanoDSF, liposome assay, crystal, ELISA)) VHH: QVQLVETGGGLVQPGGSLRLSCTASGFIFSANQMNWVRQAPGKGLEWLSGISTRGDTTSYADSVKGRFTISRDNAKNTLYLQMNSLQPDDTAVYFCARVCIRGPEPKLRCDDWGQGTQVTVSS |  |  | 4.2 |  |  | Tm of GSDMD with the VHH [7]: 54.4 °C; Kd [8]: 280 nM; Tm of GSDMD with the VHH [9]: 54.4 °C |
| VHHGSDMD-1 (VHH, Alpaca single-domain antibody; One entry is used for all tag variants; also called VHH AK-A04; VHH-1; not shown: C-terminal tag that differs by assay: LPETG-His (recombinant protein: SPR, nanoDSF, liposome assay), HA-His6 (ELISA), HA) VHH: QVQLVESGGALVQPGGSLRLSCSASGFTFSKYLMSWYRQAPGKERELVATITTAGGNTNYADSVKGRFTISRDNAKNTVYLQMNSLKPEDTAVYYCKASGGTIRTVNETYWGQGTQVTVSS | no binding | 0.55 | ≤ 9.4 | no binding | 59.6 | Tm of GSDMD with the VHH [10]: 59.6 °C |
| VHHGSDMD-3 (VHH, Alpaca single-domain antibody; One entry is used for all tag variants; also called VHH AK-H12; VHH-3; not shown: C-terminal tag that differs by assay: LPETG-His (recombinant protein: SPR, nanoDSF, liposome assay), HA-His6 (ELISA), HA) VHH: QVQLVETGGGLVQPGGSLRLSCAASGFTLDIYNMGWFRQAPGKEREGVSCISSRYGTSTYYADSVKGRFTISRDNAKNTVYLQMNNLKPEDTAVYYCATVSWRFTTNQDVCLTPSVSGYWGQGTQVTVSS | no binding | 2.19 | ≤ 9.4 |  |  | Tm of GSDMD with the VHH [11]: 54.1 °C; Tm of GSDMD with the VHH [12]: 54.1 °C |

Reference: patent publication US20260209323A1 (WHITEHEAD INSTITUTE FOR BIOMEDICAL RE SEARCH, published 2026)
